# According to patent US7223834 (Bristol-Myers Squibb, dated 2007):
# Ends that are not written are not given here. * marks the point of attachment. Biotin = O=C1N[C@H]2[C@H](CS[C@H]2CCCCC(=O)*)N1
# B1: 30-mer inhibitor peptide (30-IP), QTVTWPDMELPLPRNITEGQARGSVILTVK-Biotin (peptide)
# peptide: QTVTWPDMELPLPRNITEGQARGSVILTVK(Biotin)
# modifications: not fully specified (N-terminus, C-terminus); printed as QTVTWPDMELPLPRNITEGQARGSVILTVK-Biotin
# Target: aggrecan degrading metallo protease (ADMP)
# Assay: cell-based or functional assay
binder,measurement,value
B1,"IC50 for the inhibition of ADMP activity (microplate assay, cleavage of plate-bound 41-PS detected with BC-3 antibody)",11 µM
